Results published in paper PMC8298264, “Function of cofactor Akirin2 in the regulation of gene expression in model human neutrophil-like HL60 cells” (Bioscience Reports, 2021).

B1: sp¦Q16822¦PCKGM_HUMAN (protein, UniProt Q16822 33-640, looked up)
Phosphoenolpyruvate …: LSGDLGQLPTGIRDFVEHSARLCQPEGIHICDGTEAENTATLTLLEQQGLIRKLPKYNNCWLARTDPKDVARVESKTVIVTPSQRDTVPLPPGGARGQLGNWMSPADFQRAVDERFPGCMQGRTMYVLPFSMGPVGSPLSRIGVQLTDSAYVVASMRIMTRLGTPVLQALGDGDFVKCLHSVGQPLTGQGEPVSQWPCNPEKTLIGHVPDQREIISFGSGYGGNSLLGKKCFALRIASRLARDEGWLAEHMLILGITSPAGKKRYVAAAFPSACGKTNLAMMRPALPGWKVECVGDDIAWMRFDSEGRLRAINPENGFFGVAPGTSATTNPNAMATIQSNTIFTNVAETSDGGVYWEGIDQPLPPGVTVTSWLGKPWKPGDKEPCAHPNSRFCAPARQCPIMDPAWEAPEGVPIDAIIFGGRRPKGVPLVYEAFNWRHGVFVGSAMRSESTAAAEHKGKIIMHDPFAMRPFFGYNFGHYLEHWLSMEGRKGAQLPRIFHVNWFRRDEAGHFLWPGFGENARVLDWICRRLEGEDSARETPIGLVPKEGALDLSGLRAIDTTQLFSLPKDFWEQEVRDIRSYLTEQVNQDLPKEVLAELEALERRVHKM
B2: sp¦Q8IX12¦CCAR1_HUMAN (protein, UniProt Q8IX12 1-1150, looked up)
Cell division cycle and …: MAQFGGQKNPPWATQFTATAVSQPAALGVQQPSLLGASPTIYTQQTALAAAGLTTQTPANYQLTQTAALQQQAAAAAAALQQQYSQPQQALYSVQQQLQQPQQTLLTQPAVALPTSLSLSTPQPTAQITVSYPTPRSSQQQTQPQKQRVFTGVVTKLHDTFGFVDEDVFFQLSAVKGKTPQVGDRVLVEATYNPNMPFKWNAQRIQTLPNQNQSQTQPLLKTPPAVLQPIAPQTTFGVQTQPQPQSLLQAQISAASITPLLQTQPQPLLQQPQQKAGLLQPPVRIVSQPQPARRLDPPSRFSGRNDRGDQVPNRKDDRSRERERERRRSRERSPQRKRSRERSPRRERERSPRRVRRVVPRYTVQFSKFSLDCPSCDMMELRRRYQNLYIPSDFFDAQFTWVDAFPLSRPFQLGNYCNFYVMHREVESLEKNMAILDPPDADHLYSAKVMLMASPSMEDLYHKSCALAEDPQELRDGFQHPARLVKFLVGMKGKDEAMAIGGHWSPSLDGPDPEKDPSVLIKTAIRCCKALTGIDLSVCTQWYRFAEIRYHRPEETHKGRTVPAHVETVVLFFPDVWHCLPTRSEWETLSRGYKQQLVEKLQGERKEADGEQDEEEKDDGEAKEISTPTHWSKLDPKTMKVNDLRKELESRALSSKGLKSQLIARLTKQLKVEEQKEEQKELEKSEKEEDEDDDRKSEDDKEEEERKRQEEIERQRRERRYILPDEPAIIVHPNWAAKSGKFDCSIMSLSVLLDYRLEDNKEHSFEVSLFAELFNEMLQRDFGVRIYKSLLSLPEKEDKKEKDKKSKKDERKDKKEERDDETDEPKPKRRKSGDDKDKKEDRDERKKEDKRKDDSKDDDETEEDNNQDEYDPMEAEEAEDEEDDRDEEEMTKRDDKRDINRYCKERPSKDKEKEKTQMITINRDLLMAFVYFDQSHCGYLLEKDLEEILYTLGLHLSRAQVKKLLNKVVLRESCFYRKLTDTSKDEENHEESESLQEDMLGNRLLLPTPTVKQESKDVEENVGLIVYNGAMVDVGSLLQKLEKSEKVRAEVEQKLQLLEEKTDEDEKTILNLENSNKSLSGELREVKKDLSQLQENLKISENMNLQFENQMNKTIRNLSTVMDEIHTVLKKDNVKNEDKDQKSKENGASV
B3: sp¦P53618¦COPB_HUMAN (protein, UniProt P53618 2-953, looked up)
Coatomer subunit beta: TAAENVCYTLINVPMDSEPPSEISLKNDLEKGDVKSKTEALKKVIIMILNGEKLPGLLMTIIRFVLPLQDHTIKKLLLVFWEIVPKTTPDGRLLHEMILVCDAYRKDLQHPNEFIRGSTLRFLCKLKEAELLEPLMPAIRACLEHRHSYVRRNAVLAIYTIYRNFEHLIPDAPELIHDFLVNEKDASCKRNAFMMLIHADQDRALDYLSTCIDQVQTFGDILQLVIVELIYKVCHANPSERARFIRCIYNLLQSSSPAVKYEAAGTLVTLSSAPTAIKAAAQCYIDLIIKESDNNVKLIVLDRLIELKEHPAHERVLQDLVMDILRVLSTPDLEVRKKTLQLALDLVSSRNVEELVIVLKKEVIKTNNVSEHEDTDKYRQLLVRTLHSCSVRFPDMAANVIPVLMEFLSDNNEAAAADVLEFVREAIQRFDNLRMLIVEKMLEVFHAIKSVKIYRGALWILGEYCSTKEDIQSVMTEIRRSLGEIPIVESEIKKEAGELKPEEEITVGPVQKLVTEMGTYATQSALSSSRPTKKEEDRPPLRGFLLDGDFFVAASLATTLTKIALRYVALVQEKKKQNSFVAEAMLLMATILHLGKSSLPKKPITDDDVDRISLCLKVLSECSPLMNDIFNKECRQSLSHMLSAKLEEEKLSQKKESEKRNVTVQPDDPISFMQLTAKNEMNCKEDQFQLSLLAAMGNTQRKEAADPLASKLNKVTQLTGFSDPVYAEAYVHVNQYDIVLDVLVVNQTSDTLQNCTLELATLGDLKLVEKPSPLTLAPHDFANIKANVKVASTENGIIFGNIVYDVSGAASDRNCVVLSDIHIDIMDYIQPATCTDAEFRQMWAEFEWENKVTVNTNMVDLNDYLQHILKSTNMKCLTPEKALSGYCGFMAANLYARSIFGEDALANVSIEKPIHQGPDAAVTGHIRIRAKSQGMALSLGDKINLSQKKTSI
B4: sp¦P00387¦NB5R3_HUMAN (protein, UniProt P00387 2-301, looked up)
NADH-cytochrome b5 reductase 3: GAQLSTLGHMVLFPVWFLYSLLMKLFQRSTPAITLESPDIKYPLRLIDREIISHDTRRFRFALPSPQHILGLPVGQHIYLSARIDGNLVVRPYTPISSDDDKGFVDLVIKVYFKDTHPKFPAGGKMSQYLESMQIGDTIEFRGPSGLLVYQGKGKFAIRPDKKSNPIIRTVKSVGMIAGGTGITPMLQVIRAIMKDPDDHTVCHLLFANQTEKDILLRPELEELRNKHSARFKLWYTLDRAPEAWDYGQGFVNEEMIRDHLPPPEEEPLVLMCGPPPMIQYACLPNLDHVGHPTERCFVF
B5: sp¦Q8WZA0¦LZIC_HUMAN (protein, UniProt Q8WZA0 1-190, looked up)
Protein LZIC: MASRGKTETSKLKQNLEEQLDRLMQQLQDLEECREELDTDEYEETKKETLEQLSEFNDSLKKIMSGNMTLVDELSGMQLAIQAAISQAFKTPEVIRLFAKKQPGQLRTRLAEMDRDLMVGKLERDLYTQQKVEILTALRKLGEKLTADDEAFLSANAGAILSQFEKVSTDLGSGDKILALASFEVEKTKK
B6: sp¦Q9BX68¦HINT2_HUMAN (protein, UniProt Q9BX68 18-163, looked up)
Adenosine …: VAATGVRGGQVRGAAGVTDGNEVAKAQQATPGGAAPTIFSRILDKSLPADILYEDQQCLVFRDVAPQAPVHFLVIPKKPIPRISQAEEEDQQLLGHLLLVAKQTAKAEGLGDGYRLVINDGKLGAQSVYHLHIHVLGGRQLQWPPG
B7: sp¦Q9BUQ8¦DDX23_HUMAN (protein, UniProt Q9BUQ8 1-820, looked up)
Probable ATP-dependent RNA …: MAGELADKKDRDASPSKEERKRSRTPDRERDRDRDRKSSPSKDRKRHRSRDRRRGGSRSRSRSRSKSAERERRHKERERDKERDRNKKDRDRDKDGHRRDKDRKRSSLSPGRGKDFKSRKDRDSKKDEEDEHGDKKPKAQPLSLEELLAKKKAEEEAEAKPKFLSKAEREAEALKRRQQEVEERQRMLEEERKKRKQFQDLGRKMLEDPQERERRERRERMERETNGNEDEEGRQKIREEKDKSKELHAIKERYLGGIKKRRRTRHLNDRKFVFEWDASEDTSIDYNPLYKERHQVQLLGRGFIAGIDLKQQKREQSRFYGDLMEKRRTLEEKEQEEARLRKLRKKEAKQRWDDRHWSQKKLDEMTDRDWRIFREDYSITTKGGKIPNPIRSWKDSSLPPHILEVIDKCGYKEPTPIQRQAIPIGLQNRDIIGVAETGSGKTAAFLIPLLVWITTLPKIDRIEESDQGPYAIILAPTRELAQQIEEETIKFGKPLGIRTVAVIGGISREDQGFRLRMGCEIVIATPGRLIDVLENRYLVLSRCTYVVLDEADRMIDMGFEPDVQKILEHMPVSNQKPDTDEAEDPEKMLANFESGKHKYRQTVMFTATMPPAVERLARSYLRRPAVVYIGSAGKPHERVEQKVFLMSESEKRKKLLAILEQGFDPPIIIFVNQKKGCDVLAKSLEKMGYNACTLHGGKGQEQREFALSNLKAGAKDILVATDVAGRGIDIQDVSMVVNYDMAKNIEDYIHRIGRTGRAGKSGVAITFLTKEDSAVFYELKQAILESPVSSCPPELANHPDAQHKPGTILTKKRREETIFA
B8: sp¦Q9HAV4¦XPO5_HUMAN (protein, UniProt Q9HAV4 2-1204, looked up)
Exportin-5: AMDQVNALCEQLVKAVTVMMDPNSTQRYRLEALKFCEEFKEKCPICVPCGLRLAEKTQVAIVRHFGLQILEHVVKFRWNGMSRLEKVYLKNSVMELIANGTLNILEEENHIKDALSRIVVEMIKREWPQHWPDMLIELDTLSKQGETQTELVMFILLRLAEDVVTFQTLPPQRRRDIQQTLTQNMERIFSFLLNTLQENVNKYQQVKTDTSQESKAQANCRVGVAALNTLAGYIDWVSMSHITAENCKLLEILCLLLNEQELQLGAAECLLIAVSRKGKLEDRKPLMVLFGDVAMHYILSAAQTADGGGLVEKHYVFLKRLCQVLCALGNQLCALLGADSDVETPSNFGKYLESFLAFTTHPSQFLRSSTQMTWGALFRHEILSRDPLLLAIIPKYLRASMTNLVKMGFPSKTDSPSCEYSRFDFDSDEDFNAFFNSSRAQQGEVMRLACRLDPKTSFQMAGEWLKYQLSTFLDAGSVNSCSAVGTGEGSLCSVFSPSFVQWEAMTLFLESVITQMFRTLNREEIPVNDGIELLQMVLNFDTKDPLILSCVLTNVSALFPFVTYRPEFLPQVFSKLFSSVTFETVEESKAPRTRAVRNVRRHACSSIIKMCRDYPQLVLPNFDMLYNHVKQLLSNELLLTQMEKCALMEALVLISNQFKNYERQKVFLEELMAPVASIWLSQDMHRVLSDVDAFIAYVGTDQKSCDPGLEDPCGLNRARMSFCVYSILGVVKRTCWPTDLEEAKAGGFVVGYTSSGNPIFRNPCTEQILKLLDNLLALIRTHNTLYAPEMLAKMAEPFTKALDMLDAEKSAILGLPQPLLELNDSPVFKTVLERMQRFFSTLYENCFHILGKAGPSMQQDFYTVEDLATQLLSSAFVNLNNIPDYRLRPMLRVFVKPLVLFCPPEHYEALVSPILGPLFTYLHMRLSQKWQVINQRSLLCGEDEAADENPESQEMLEEQLVRMLTREVMDLITVCCVSKKGADHSSAPPADGDDEEMMATEVTPSAMAELTDLGKCLMKHEDVCTALLITAFNSLAWKDTLSCQRTTSQLCWPLLKQVLSGTLLADAVTWLFTSVLKGLQMHGQHDGCMASLVHLAFQIYEALRPRYLEIRAVMEQIPEIQKDSLDQFDCKLLNPSLQKVADKRRKDQFKRLIAGCIGKPLGEQFRKEVHIKNLPSLFKKTKPMLETEVLDNDGGGLATIFEP

Tested on: human HL60 cells
Assay: SWATH-MS proteomics, differential protein representation, akirin2 KO vs WT HL60 cells
Type: cell-based
Details: akirin2 KO vs WT HL60 cells; sheet "Under-represented in KO"
Outline: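 First, proteins from wild-type and knockout cells are digested with trypsin by FASP. Next, pooled IDA runs generate a reference ion library. Then six samples of 5 µg each are acquired by data-independent SWATH, and protein areas are normalized to the summed area of all detected proteins.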

| Molecule | Fold Change | Log (Fold Change) |
| --- | --- | --- |
| B1 | 0.1415 | -0.8493 |
| B2 | 0.4166 | -0.3803 |
| B3 | 0.4243 | -0.3723 |
| B4 | 0.3747 | -0.4263 |
| B5 | 0.433 | -0.3635 |
| B6 | 0.4303 | -0.3662 |
| B7 | 0.4207 | -0.376 |
| B8 | 0.4142 | -0.3828 |
